From paper PMC2905062

Molecular target: Axl receptor tyrosine kinase, wildtype (human)
Assay: co-IP

fold Grb2 co-IP'ed with Axl, rhGas6 stimulation against no stimulation: 2 fold
Substance: endogenous growth factor receptor-bound protein 2 (Grb2) of COS7 cells (natural protein)
